These results are taken from the PETadex activity labels (doi:10.1016/j.bbalip.2005.11.003).

Usually Km stands for the substrate concentration at which the rate is half of its maximum. Usually kcat stands for the maximal rate divided by the concentration of active sites. The kcat/Km is the second-order rate constant that governs catalysis at low substrate concentration.

Sequences and labels used below:
B1: unnamed (protein)
chain: MWLLPLVLTSLASSATWAGQPASPPVVDTAQGRVLGKYVSLEGLAQPVAVFLGVPFAKPPLGSLRFAPPQPAEPWSFVKNTTSYPPMCCQDPVVEQMTSDLFTNGKERLTLEFSEDCLYLNIYTPADLTKRGRLPVMVWIHGGGLVLGGAPMYDGVVLAAHENVVVVAIQYRLGIWGFFSTGDEHSRGNWGHLDQVAALHWVQENIANFGGDPGSVTIFGESAGGESVSVLVLSPLAKNLFHRAISESGVALTVALVRKDMKAAAKQIAVLAGCKTTTSAVFVHCLRQKSEDELLDLTLKMKFLTLDFHGDQRESHPFLPTVVDGVLLPKMPEEILAEKDFNTVPYIVGINKQEFGWLLPTMMGFPLSEGKLDQKTATSLLWKSYPIANIPEELTPVATDKYLGGTDDPVKKKDLFLDLMGDVVFGVPSVTVARQHRDAGAPTYMYEFQYRPSFSSDKKPKTVIGDHGDEIFSVFGFPLLKGDAPEEEVSLSKTVMKFWANFARSGNPNGEGLPHWPMYDQEEGYLQIGVNTQAAKRLKGEEVAFWNDLLSKEAAKKPPKIKHAEL
B2: unnamed (protein)
chain: MLHLVCLALLCHVARGLPTQASHNAQPVINLGYARYQGVRLEAGVDEFLGMRYASPPIGDLRFRAPQDPPANQTLQSATEYGPICIGLDEEESPGDISEDCLFINVFKPSTATSQSKLPVWLFIQGGGYAENSNANYNGTQVIQASDDVIVFVTFNYRVGALGFLASEKVRQNGDLNAGLLDQRKALRWVKQYIEQFGGDPDHIVIHGVSAGAGSVAYHLSAYGGKDEGLFIGAIVESSFWPTQRTVSEMEFQFERFVNDTGCSSARDSLECLREQDIATIQKGNTGSPFPGGSSSPLPDWYFLPVTDGSLVPDELYNAFDAGNFIKVPVLVGDDTDEGSNFAYNASSSADVSRFFKNNYPNLTSQQLNEINQVYPRGKLLPRHAAYFGASSAAYGDATFTCPGNHVASSAARYLPNSVWNYRVNIIDESNIAGGIGVPHTFELPAIFGAGSTGTLSSDSSYLTYNAAIIPVTMHYFISFVQTLNPNTYRYATAPEWNTWGNGQRLRLQTNDTAMEAVPESSLQDCAFWKSLTVPMEV
B3: unnamed (protein)
chain: MLPLWTLSLLLGAVAGKEVCYERLGCFSDDSPWSGITERPLHILPWSPKDVNTRFLLYTNENPNNFQEVAADSSSISGSNFKTNRKTRFIIHGFIDKGEENWLANVCKNLFKVESVNCICVDWKGGSRTGYTQASQNIRIVGAEVAYFVEFLQSAFGYSPSNVHVIGHSLGAHAAGEAGRRTNGTIGRITGLDPAEPCFQGTPELVRLDPSDAKFVDVIHTDGAPIVPNLGFGMSQVVGHLDFFPNGGVEMPGCKKNILSQIVDIDGIWEGTRDFAACNHLRSYKYYTDSIVNPDGFAGFPCASYNVFTANKCFPCPSGGCPQMGHYADRYPGKTNDVGQKFYLDTGDASNFARWRYKVSVTLSGKKVTGHILVSLFGNKGNSKQYEIFKGTLKPDSTHSNEFDSDVDVGDLQMVKFIWYNNVINPTLPRVGASKIIVETNVGKQFNFCSPETVREEVLLTLTPC
B4: unnamed (protein)
chain: MLDMPIDPVYYQLAEYFDSLPKFDQFSSAREYREAINRIYEERNRQLSQHERVERVEDRTIKGRNGDIRVRVYQQKPDSPVLVYYHGGGFVICSIESHDALCRRIARLSNSTVVSVDYRLAPEHKFPAAVYDCYDATKWVAENAEELRIDPSKIFVGGDSAGGNLAAAVSIMARDSGEDFIKHQILIYPVVNFVAPTPSLLEFGEGLWILDQKIMSWFSEQYFSREEDKFNPLASVIFADLENLPPALIITAEYDPLRDEGEVFGQMLRRAGVEASIVRYRGVLHGFINYYPVLKAARDAINQIAALLVFD

Substrate in the first data set: p-NP-C4
The settings on record: pH 7; 25 °C.
Turning to B1, the Michaelis constant (Km) worked out at 80 µM, the kcat was found to be 18 s⁻¹ and the kcat/Km was determined as 225000 M⁻¹ s⁻¹.
B4: the Km was determined as 40 µM, the kcat came to 140 s⁻¹ and the kcat/Km was found to be 3.5e+06 M⁻¹ s⁻¹.

Substrate in the next data set: triacetin
The settings on record: pH 7; 25 °C.
Regarding B1, the Km turned out to be 3000 µM, the kcat was found to be 60 s⁻¹ and the kcat/Km turned out to be 20000 M⁻¹ s⁻¹.
In the same order, the values of B2 are 15000 µM, 265 s⁻¹ and 17700 M⁻¹ s⁻¹.
The like results for B3 were, in that order, 190000 µM, 8 s⁻¹ and 42.1 M⁻¹ s⁻¹.
The like results for B4 were, in that order, 10000 µM, 40 s⁻¹ and 4000 M⁻¹ s⁻¹.

Substrate in the next data set: tributyrin
The settings on record: pH 7; 25 °C.
For B1, the Km turned out to be 50 µM, the kcat was determined as 70 s⁻¹ and the catalytic efficiency (kcat/Km) is 1.4e+06 M⁻¹ s⁻¹.
In the same order, the values of B3 are 400 µM, 7890 s⁻¹ and 1.97e+07 M⁻¹ s⁻¹.
As to B4, the Km was 50 µM, the kcat is 95 s⁻¹ and the kcat/Km was determined as 1.9e+06 M⁻¹ s⁻¹.

Substrate in a further data set: tripropionin
The conditions noted are these: pH 7; 25 °C.
With B1, the Michaelis constant (Km) stood at 300 µM, the kcat is 50 s⁻¹ and the kcat/Km came out at 167000 M⁻¹ s⁻¹.
The like results for B2 were, in that order, 350 µM, 60 s⁻¹ and 171000 M⁻¹ s⁻¹.
The like results for B3 were, in that order, 8000 µM, 3320 s⁻¹ and 415000 M⁻¹ s⁻¹.
In the same order, the values of B4 are 300 µM, 110 s⁻¹ and 367000 M⁻¹ s⁻¹.

Substrate in the next data set: vinyl acetate
The conditions noted are these: pH 7; 25 °C.
Regarding B1, the Km is 4000 µM, the catalytic constant (kcat) was found to be 315 s⁻¹ and the kcat/Km was found to be 78800 M⁻¹ s⁻¹.
On to B2, for which the Km was found to be 3000 µM, the turnover number (kcat) was 400 s⁻¹ and the kcat/Km worked out at 133000 M⁻¹ s⁻¹.
B3: the Km was determined as 315000 µM, the kcat is 170 s⁻¹ and the specificity constant (kcat/Km) stood at 540 M⁻¹ s⁻¹.
In the same order, the values of B4 are 4000 µM, 50 s⁻¹ and 12500 M⁻¹ s⁻¹.

Substrate in another data set: vinyl butyrate
The conditions noted are these: pH 7; 25 °C.
Take B1: the Km turned out to be 2000 µM, the kcat was determined as 460 s⁻¹ and the kcat/Km was 230000 M⁻¹ s⁻¹.
As for B2, the Michaelis constant (Km) is 2000 µM, the kcat came out at 25 s⁻¹ and the kcat/Km was found to be 12500 M⁻¹ s⁻¹.
In the same order, the values of B3 are 25000 µM, 625 s⁻¹ and 25000 M⁻¹ s⁻¹.
In the same order, the values of B4 are 2500 µM, 210 s⁻¹ and 84000 M⁻¹ s⁻¹.

Substrate in a further data set: vinyl propionate
The conditions noted are these: pH 7; 25 °C.
Turning to B1, the Km is 5000 µM, the kcat amounted to 295 s⁻¹ and the kcat/Km is 59000 M⁻¹ s⁻¹.
In the same order, the values of B2 are 3000 µM, 160 s⁻¹ and 53300 M⁻¹ s⁻¹.
The like results for B3 were, in that order, 75000 µM, 800 s⁻¹ and 10700 M⁻¹ s⁻¹.
In the same order, the values of B4 are 7000 µM, 200 s⁻¹ and 28600 M⁻¹ s⁻¹.

Substrate in the next data set: vinyl laurate
The settings on record: pH 7; 25 °C.
For B3, the Michaelis-Menten constant (Km) was determined as 4000 µM, the catalytic constant (kcat) was 375 s⁻¹ and the kcat/Km worked out at 93800 M⁻¹ s⁻¹.
